Patent US20040127421

Molecular target: T1, 19-mer (SEQ ID NO:11) PRCGNPDVANYNFFPRKPK
T1 chain: PRCGNPDVANYNFFPRKPK

B1: Proenzyme pro-MMP-9 (protein)
chain: APRQRQSTLVLFPGDLRTNLTDRQLAEEYLYRYGYTRVAEMRGESKSLGPALLLLQKQLSLPETGELDSATLKAMRTPRCGVPDLGRFQTFEGDLKWHHHNITYWIQNYSEDLPRAVIDDAFARAFALWSAVTPLTFTRVYSRDADIVIQFGVAEHGDGYPFDGKDGLLAHAFPPGPGIQGDAHFDDDELWSLGKGVVVPTRFGNADGAACHFPFIFEGRSYSACTTDGRSDGLPWCSTTANYDTDDRFGFCPSERLYTQDGNADGKPCQFPFIFQGQSYSACTTDGRSDGYRWCATTANYDRDKLFGFCPTRADSTVMGGNSAGELCVFPFTFLGKEYSTCTSEGRGDGRLWCATTSNFDSDKKWGFCPDQGYSLFLVAAHEFGHALGLDHSSVPEALMYPMYRFTEGPPLHKDDVNGIRHLYGPRPEPEPRPPTTTTPQPTAPPTVCPTGPPTVHPSERPTAGPTGPPSAGPTGPPTAGPSTATTVPLSPVDDACNVNIFDAIAEIGNQLYLFKDGKYWRFSEGRGSRPQGPFLIADKWPALPRKLDSVFEERLSKKLFFFSGRQVWVYTGASVLGPRRLDKLGLGADVAQVTGALRSGRGKMLLFSGRRLWRFDVKAQMVDPRSASEVDRMFPGVPLDTHDVFQYREKAYFCQDRFYWRVSSRSELNQVDQVGYVTYDILQCPED
B1 was tested, and the “conversion of pro-MMP-9 into prodomain and active enzyme by stromilysin (HPLC peak areas)” value was “Titrating the standard splicing reaction with the 19-mer prevents the conversion of pro-MMP-9 into the prodomain and the active enzyme. Splicing can be inhibited in a dose dependent manner with micromolar 19-mer”.
